Drawing on the supplement of paper PMC10567573, this text covers protein stability index for 72 sequences.

± gives the standard deviation.

The data set can be described thus: protein stability index of a GFP-peptide fusion (GPS, HEK-293T) (PSI 1-6); higher = more stable.
The mark [1] stands for this setting: treatment: DMSO, c terminus: a fixed tail appended.
Setting [2] is: treatment: MLN4924 1 uM, 8 h, c terminus: a fixed tail appended.
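Further: 24-mer peptide tiles fused after GFP, lentivirally expressed, FACS-sorted into six equal bins by GFP/DsRed ratio, decoded by Illumina sequencing, PSI is the read-weighted mean bin number.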

As to EANSSNSQKNEKALTNIQNCMAEK [C8orf76], the protein stability index is, setting by setting: under setting [1], 4.96 ± 0.38; under setting [2], 4.58 ± 0.37.

In the case of EARPIETYQVHDYLRSKLCSLYEN [PPP2R2C], the protein stability index is 2.7 ± 0.19 under setting [1] and 3.02 ± 0.33 under setting [2].

In the case of EAVFGKYGRIVEVLLMKDRETNKS [RBMX], the protein stability index was found to be 2.53 ± 0.29 under setting [1] and 2.85 ± 0.52 under setting [2].

EDDALSDKHGCPAYVSPEILNTTG [TRIB1]: the protein stability index worked out at 4.97 ± 0.24 under setting [1] and 4.95 ± 0.072 under setting [2].

EDGKTCRRKDVCQAIDHGCEHICV [MATN2]: the protein stability index runs as follows: under setting [1], 3.82 ± 0.2; under setting [2], 4.24 ± 0.28.

In the case of EDKENYKKFYEAFSKNLKLGIHED [HSP90AB1], the protein stability index by setting is: under setting [1], 4.08 ± 0.34; under setting [2], 4.22 ± 0.25.

Take EDMLLPLAWRIVNDTYRTDLCLLY [CCNC]: the protein stability index is 2.76 ± 0.57 under setting [1] and 2.59 ± 0.38 under setting [2].

Take EDSLGCLTADTKEVTASQEARGLR [IRX6]: the protein stability index came out at 5.34 ± 0.25 under setting [1] and 5.3 ± 0.27 under setting [2].

In turn, EDSRTSKESMSEADRAQKMDGESE [EHMT1] came in with a protein stability index under setting [1] of 5.5 ± 0.33 and a protein stability index under setting [2] of 5.64 ± 0.23.

For EDSVSRLEKEIEVLERGDSAPATA [PALM], the protein stability index is, setting by setting: under setting [1], 5.49 ± 0.23; under setting [2], 5.47 ± 0.18.

For EECTDLQKEGEFSTCFTELQRDFL [OAS1], the protein stability index under setting [1] was 4.5 ± 0.32 and the protein stability index under setting [2] is 4.52 ± 0.47.

Regarding EEEEEEEDEDDDSADMDESDEDDE [FBXO3], the protein stability index was 5.37 ± 0.12 under setting [1] and 5.38 ± 0.15 under setting [2].

Turning to EEIKKLTTDPDLILEVLRSSPMVQ [LARP4], the protein stability index is, setting by setting: under setting [1], 2.39 ± 0.7; under setting [2], 2.64 ± 0.64.

In the case of EEKSKQFLDLMETIDKQREEMAKS [LRRC45], the protein stability index amounted to 5.28 ± 0.25 under setting [1] and 5.3 ± 0.16 under setting [2].

Take EEKSVKNTSIRVADFGSATFDHEH [CLK3]: the protein stability index is 5.1 ± 0.11 under setting [1] and 5.07 ± 0.21 under setting [2].

Regarding EENIMKSNIDKKFSAHYDAVEAEL [FAM50A], the protein stability index is, setting by setting: under setting [1], 4.98 ± 0.19; under setting [2], 5.08 ± 0.083.

Take EGAFGEHGSQGTYSNTKENGINGE [MAP2]: the protein stability index runs as follows: under setting [1], 5.19 ± 0.31; under setting [2], 5.25 ± 0.17.

EGAQLGENKPSTCSFSIERILGLD [HESX1]: the protein stability index under setting [1] is 2.92 ± 0.18 and the protein stability index under setting [2] was found to be 3.11 ± 0.1.

EGHSPGNLPKFCHECGTKYPVEWA [ZC2HC1A] gave a protein stability index under setting [1] of 2.91 ± 0.25 and a protein stability index under setting [2] of 2.97 ± 0.28.

EHLEILQKEDVKPYQVNGVNPAYP [ETS1] showed a protein stability index under setting [1] of 4.1 ± 0.11 and a protein stability index under setting [2] of 4.05 ± 0.28.

Consider EHPEALSCLLLQLRREKPSEEMVK [INTS3], for which the protein stability index is, setting by setting: under setting [1], 3.38 ± 0.43; under setting [2], 3.57 ± 0.26.

Turning to EIARREKELEARVRKPAEAERYKL [FLOT1], the protein stability index is, setting by setting: under setting [1], 4.4 ± 0.1; under setting [2], 4.45 ± 0.22.

Regarding EIIELRRTVNALEIELQAQHNLRY [KRT33B], the protein stability index is, setting by setting: under setting [1], 2.21 ± 0.22; under setting [2], 2.08 ± 0.14.

For the sequence EISAYRKLLQGEEERLKLSPSPSS [LMNB1], the protein stability index worked out at 3.78 ± 0.37 under setting [1] and 4.16 ± 0.61 under setting [2].

With EKLCIYTDNSIKPQELLEWELVVL [CCND2], the protein stability index turned out to be 2.57 ± 0.58 under setting [1] and 2.62 ± 0.6 under setting [2].

With EKPYGCIDCGKAFSQKSCLVAHQR [ZNF649], the protein stability index came out at 2.81 ± 0.07 under setting [1] and 2.99 ± 0.28 under setting [2].

As for EKWAEGGGHSRERADEPQWSLYPS [CHGB], the protein stability index by setting is: under setting [1], 4.28 ± 0.22; under setting [2], 4.24 ± 0.064.

For the sequence EKYGRAHPVFYQGTYSQALNDAKR [FAF2], the protein stability index under setting [1] is 3.28 ± 0.15 and the protein stability index under setting [2] came to 3.47 ± 0.37.

Take ELDDPGQPVSLRRRKREVLVEDMV [ZNF24]: the protein stability index was determined as 4.66 ± 0.12 under setting [1] and 4.68 ± 0.17 under setting [2].

Regarding ELEPLKGNFDWEAIFDAGTLGGEL [FOXJ1], the protein stability index by setting is: under setting [1], 4.2 ± 0.39; under setting [2], 4.05 ± 0.46.

In the case of ELGSESQGASESQAPGEENLLGEA [HDAC6], the protein stability index runs as follows: under setting [1], 5.63 ± 0.29; under setting [2], 5.54 ± 0.12.

Take ELHQVAERVEALGQFVMKTRRTLK [GNB5]: the protein stability index is, setting by setting: under setting [1], 2.87 ± 0.12; under setting [2], 3.1 ± 0.3.

For ELIRVEVEILDLNDNSPSFATPER [PCDHGC5], the protein stability index was 2.42 ± 0.26 under setting [1] and 2.43 ± 0.25 under setting [2].

As for ELTLSKTDLEMQIESLNEELAYMK [KRT13], the protein stability index reads like this: under setting [1], 3.66 ± 0.15; under setting [2], 3.66 ± 0.35.

For the sequence ELVPKQPQKRKPQEQLLECNKLCG [SLC2A12], the protein stability index is 3.44 ± 0.45 under setting [1] and 4.18 ± 0.18 under setting [2].

As for ELYVFGGVRSREDAQGSEMVTCKS [GAN], the protein stability index was 4.08 ± 0.38 under setting [1] and 4.15 ± 0.34 under setting [2].

On to ENLAHHLEIDSGVITLDPQTASRS [TRIM15], for which the protein stability index runs as follows: under setting [1], 4.96 ± 0.11; under setting [2], 4.97 ± 0.27.

Consider ENPETDLHVNPKKQTIGNSCKACG [EIF5], for which the protein stability index came out at 4.44 ± 0.39 under setting [1] and 4.66 ± 1.2 under setting [2].

As for ENRALQQLLEQKQAYWAQAEDTAA [CBY2], the protein stability index is, setting by setting: under setting [1], 4.3 ± 0.21; under setting [2], 4.4 ± 0.21.

Consider ENSHTNTEVLRNMGFAAKAMKSVH [CHMP4C], for which the protein stability index was 3.61 ± 0.28 under setting [1] and 3.77 ± 0.23 under setting [2].

On to ENTLLNSQMVSTDNSLSSQNYISQ [MIA2], for which the protein stability index runs as follows: under setting [1], 4.05 ± 0.23; under setting [2], 4.03 ± 0.17.

As to EPAGGGRSREARSRLLLLEQELKT [SMAD6], the protein stability index is, setting by setting: under setting [1], 4.63 ± 0.44; under setting [2], 4.87 ± 0.088.

With EPEPAEVTSTSQSPHSPDSSQSSL [DDIT3], the protein stability index under setting [1] worked out at 5.48 ± 0.15 and the protein stability index under setting [2] is 5.58 ± 0.13.

As for EPGPRPALQPSPSIRLPLDAPLPG [TBC1D10A], the protein stability index by setting is: under setting [1], 4.97 ± 0.28; under setting [2], 5.06 ± 0.26.

In the case of EPKLHTPMYFFLGNLSVLDVGCIS [OR3A1], the protein stability index came to 2.7 ± 0.83 under setting [1] and 2.95 ± 0.71 under setting [2].

In turn, EPNTFSPANVDASVMYRKWKESKG [CDC34] returned a protein stability index under setting [1] of 4.69 ± 0.15 and a protein stability index under setting [2] of 4.59 ± 0.17.

Take EQATSLAILRVIRLVRVFRIFKLS [KCNA1]: the protein stability index under setting [1] amounted to 2.42 ± 0.63 and the protein stability index under setting [2] is 2.7 ± 0.26.

As to EQHGKKVPTVSRPYSFIEFDTFIQ [SEC22B], the protein stability index reads like this: under setting [1], 2.75 ± 0.28; under setting [2], 2.95 ± 0.26.

Take EQLLVLVEWAKYIPAFCELPLDDQ [HNF4A]: the protein stability index reads like this: under setting [1], 2.57 ± 0.78; under setting [2], 2.46 ± 0.42.

In the case of ERAIRTQPKQLIVDDLKGSLKEDL [SPRY1], the protein stability index reads like this: under setting [1], 4.81 ± 0.28; under setting [2], 4.85 ± 0.18.

Sequence ERLVAQFPSSGRFWKLYIEAEVTI [CSTF3] displayed a protein stability index under setting [1] of 2.93 ± 0.61 and a protein stability index under setting [2] of 2.71 ± 0.38.

ERMAEEGGGGQGDGGSSLASGSTQ [FBXO28] yielded a protein stability index under setting [1] of 5.53 ± 0.35 and a protein stability index under setting [2] of 5.35 ± 0.33.

In the case of ESAFKLSTGTSRWPSAKSAGWTLA [SCNN1D], the protein stability index is, setting by setting: under setting [1], 2.46 ± 0.21; under setting [2], 3.03 ± 0.17.

For the sequence ESFIKAIGVGLGFELQRLEFDLSP [AASDHPPT], the protein stability index reads like this: under setting [1], 2.89 ± 0.77; under setting [2], 2.84 ± 0.64.

On to ESHSCPQQVPMPPGQEAQRVVCGI [NEK8], for which the protein stability index amounted to 4.15 ± 0.28 under setting [1] and 4.15 ± 0.12 under setting [2].

On to ETAAGKGKGEARARLKRSQSFGVA [SMTNL2], for which the protein stability index by setting is: under setting [1], 4.39 ± 0.18; under setting [2], 4.71 ± 0.12.

Regarding ETHRAPDLVQWTRHMEAVKAQLLE [SOAT2], the protein stability index is 4.81 ± 0.21 under setting [1] and 4.53 ± 0.29 under setting [2].

For the sequence ETLSITNCRLSEGDVMHLSQSPSV [PRAME], the protein stability index is, setting by setting: under setting [1], 3.2 ± 0.66; under setting [2], 3.22 ± 0.77.

With ETYLQNHFAEEERSKYDYLMILRR [TENT5C], the protein stability index under setting [1] was found to be 2.84 ± 0.1 and the protein stability index under setting [2] is 3.13 ± 0.23.

Consider EVHRLIEGKAPIISGVTKAISSPT [TPPP], for which the protein stability index amounted to 3.42 ± 0.18 under setting [1] and 3.84 ± 0.28 under setting [2].

For EVPTAAGALTPTPAPTTTTATREE [CLPTM1], the protein stability index is 5.42 ± 0.27 under setting [1] and 5.44 ± 0.39 under setting [2].

As to EVRKLTQRLEEMTQRMEALENRLR [MATN2], the protein stability index is 2.57 ± 0.39 under setting [1] and 2.91 ± 0.4 under setting [2].

As to EVSSPPDTTEEVDHKPKLCRLAKG [PDZK1], under setting [1], the protein stability index turned out to be 5.11 ± 0.45.

Regarding EYVEKETQEKKRLSRTNEELLWKL [MTUS2], the protein stability index under setting [1] stood at 4.04 ± 0.25 and the protein stability index under setting [2] was determined as 4.17 ± 0.22.

Consider FAPQTGARPSETFARFCKSQESAL [DNAAF3], for which the protein stability index under setting [1] amounted to 2.5 ± 0.45 and the protein stability index under setting [2] came to 2.76 ± 0.52.

Regarding FARYPNGVVVHYFCSKEVNPADT [VPS39], the protein stability index (treatment: DMSO, c terminus: native) was determined as 2.4 ± 0.22 and the protein stability index (treatment: MLN4924 1 uM, 8 h, c terminus: native) was 2.27 ± 0.18.

Take FCYCAGSHKRKRSSGSFCYCHPDS [GMCL1]: the protein stability index under setting [1] turned out to be 2.56 ± 0.73 and the protein stability index under setting [2] was 3.19 ± 0.61.

For FDQLKQFLTFDKQVLRFYAIWDDT [EFHC1], the protein stability index runs as follows: under setting [1], 2.31 ± 0.2; under setting [2], 2.13 ± 0.33.

Take FEAYAKICDPGLTSFEPEALGNLV [CAMK2B]: the protein stability index under setting [1] was 2.71 ± 0.37 and the protein stability index under setting [2] was 2.76 ± 0.32.

FEFLYNALEFWRQEELTRINQSFT [IQUB]: the protein stability index worked out at 2.13 ± 0.54 under setting [1] and 2.45 ± 0.74 under setting [2].

On to FFKGIDQDIERGVQSEIFLHESYC [LYSMD4], for which the protein stability index worked out at 2.58 ± 0.27 under setting [1] and 2.35 ± 0.19 under setting [2].

Take FFLFIGVILFSSAVYFAEAEEAES [KCNA1]: the protein stability index runs as follows: under setting [1], 2.81 ± 0.18; under setting [2], 2.78 ± 0.34.
